Assay in all cases: SPR
What all share (settings): both partners purified

One experiment deals with T1, RSVFV-1 (synthetic construct (de novo scaffold …)).
T1 construct: also called RSVF-V H6; source: E. coli BL21 (DE3), purified (Ni-NTA, SEC)
T1 chain: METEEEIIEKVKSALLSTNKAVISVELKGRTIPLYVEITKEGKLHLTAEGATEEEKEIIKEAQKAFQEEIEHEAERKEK

In a further experiment the target is T2, RSVFV-2 (de novo design (synthetic)).
T2 construct: source: E. coli BL21 (DE3), purified (Ni-NTA, SEC)
T2 chain: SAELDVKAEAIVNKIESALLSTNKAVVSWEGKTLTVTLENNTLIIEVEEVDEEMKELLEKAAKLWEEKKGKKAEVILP

Another experiment concerns the target T3, RSVFV-3 (de novo design (synthetic)).
T3 construct: source: E. coli BL21 (DE3), purified (Ni-NTA, SEC)
T3 chain: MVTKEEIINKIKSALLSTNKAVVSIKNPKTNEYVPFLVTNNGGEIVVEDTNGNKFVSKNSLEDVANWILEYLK

In another experiment the target is T4, RSVFV-4 (de novo design (synthetic)).
T4 construct: source: E. coli BL21 (DE3), purified (Ni-NTA, SEC)
T4 chain: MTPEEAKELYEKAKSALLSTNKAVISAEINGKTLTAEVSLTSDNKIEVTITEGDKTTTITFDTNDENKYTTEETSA

In another experiment the target is T5, RSVF-multi-3 (de novo design (synthetic)).
T5 construct: source: E. coli BL21 (DE3), purified (Ni-NTA, SEC)
T5 chain: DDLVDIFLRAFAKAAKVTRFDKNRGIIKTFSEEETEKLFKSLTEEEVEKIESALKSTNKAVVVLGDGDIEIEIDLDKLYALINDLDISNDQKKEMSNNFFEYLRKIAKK

The target of a further experiment is T6, RSVF-multi-4 (synthetic construct (de novo design)).
T6 construct: also called RSVF-multi-4 WT; source: E. coli BL21 (DE3), purified (Ni-NTA, SEC)
T6 chain: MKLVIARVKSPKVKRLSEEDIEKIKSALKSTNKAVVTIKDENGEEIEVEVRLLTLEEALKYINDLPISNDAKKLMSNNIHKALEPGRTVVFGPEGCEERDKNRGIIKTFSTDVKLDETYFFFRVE

B1: RSV90 Fab (Fab, V domains shown)
VH: EVQLVESGGGLVQPRRSLRLSCAASGFTFDDYTIHWVRQAPGKGLEWVSGITWNSGYIGYADSVKGRFTISRDNARNSLYLQMNSLRAEDTALYYCVRDAYVSGSDYYYYGLDVWGRGTLVTVSS
VL: EIVMTSSPATLSVSPGERVTLFCRASQSVISNLAWYQQKSGQAPRLLIYGASTRATGIPSRFSGSGSGTEFTLTISSLQSEDFAVYFCQQYNNWPLTFGGGTQVNVQ
notes: also called hRSV90; site-V-specific antibody
As to B1, the Kd (commonly the constant that tells how readily two partners part at equilibrium) in the experiment with RSVFV-1 was 54 nM; with RSVFV-2, 108 nM; with RSVFV-3, 94 nM; in the experiment with RSVFV-4, 241 nM.

B2: Motavizumab IgG (antibody, V domains shown)
VH: QVTLRESGPALVKPTQTLTLTCTFSGFSLSTAGMSVGWIRQPPGKALEWLADIWWDDKKHYNPSLKDRLTISKDTSKNQVVLKVTNMDPADTATYYCARDMIFNFYFDVWGQGTTVTVSS
VL: DIQMTQSPSTLSASVGDRVTITCSASSRVGYMHWYQQKPGKAPKLLIYDTSKLASGVPSRFSGSGSGTEFTLTISSLQPDDFATYYCFQGSGYPFTFGGGTKVEIK
notes: also called site-II-specific antibody
Regarding B2, the Kd in the experiment with RSVF-multi-3 is 18 nM; with RSVF-multi-4, 14 nM.

These data come from paper PMC13038408 (Nature Chemical Biology, 2025).
